Legend:
[1] = tested on: Met-1 tumor (a highly metastatic mouse breast cancer); assay: Met-1 tumor transplanted subcutaneously into nude mice; type: in vivo; conditions: 100 ng/mouse/day intraperitoneally, 5 days a week; P<0.0001
Protocol: FIG. 15. 3KE (175-222) mutant suppressed tumorigenesis in a xenograft experiment with highly metastatic Met-1 tumor. Met-1 tumor (a highly metastatic mouse breast cancer) (4×4×4 mm) was transplanted subcutaneously into nude mice. The 3KE (175-222) mutant or vehicle was intraperitoneally injected ([…] 5 days a week) to mice, starting day 0. Data are shown as means+/−SEM. P<0.0001 by 2-way ANOVA (n=2 for control and n=3 for 3KE).
It was tested whether intraperitoneal injection of 3KE (175-222) can affect tumor growth in vivo. The Met-1 line (a highly metastatic mouse mammary tumor) (Guy et al. 1992; Cheung et al. 1997) has the polyoma virus middle T (PyV-MT) transgene, and metastasize with 100% efficiency. Met-1 (4mm×4 mm×4 mm) was transplanted to nude mice and 3KE (175-222) (100 ng/mouse/day 5 days a week) was intraperitoneally injected.

[2] = tested on: HaCAT keratinocytes; assay: ERK1/2 activation in HaCAT keratinocytes, Western blotting; type: cell-based; conditions: serum-starved; background Erk1/2 level high
Protocol: FIG. 18. […] HaCAT keratinocytes were serum-starved and incubated with wt NRG1 (175-222) or 3KE (175-222). The levels of Erk1/2 activation were determined by Western blotting.

[3] = tested on: mammary intraepithelial neoplasia-outgrowth (MIN-O); assay: Outgrowth of precancer (MIN-O) in FVB mice; type: in vivo; conditions: 200 ng/day/mouse intraperitoneally, 5 days a week for 4 weeks; P=0.0355
Protocol: FIG. 16. Inhibitory effect of daily intraperitoneal injection of 3KE (175-222) on the outgrowth of precancer (MIN-O) in FVB mice. MIN-O was transplanted into fat pads of FVB mice (two per mice) and 3KE (175-222) (200 ng/mouse/day) was injected 5 days a week for 4 weeks starting day 0. After 28 days, mice were sacrificed and the dimensions of tumors were measured. Since MIN-O grows as a thin layer, the two-dimensional size was calculated and the thickness was ignored. P=0.0355 by ANOVA between control and 3KE (175-222).
To study the effect of 3KE (175-222) on the premalignant cancer, transplantable mammary intraepithelial neoplasia-outgrowth (MIN-O) tissue lines, which were derived from hyperplastic mammary lesions in young Tg(MMTV-PyV-mT) females (Maglione et al. 2004), were used. The resulting lesions mimic the biological behavior, molecular biology, and histopathology of human ductal carcinoma in situ (Maglione et al. 2004). One mm^3 pieces of the 8w-BMINO tissues (Maglione et al. 2004) were transplanted to gland-cleared no. 4 mammary fat pads of 3-week-old FVB females bilaterally.

[4] = target: T1, αvβ3-ErbB3 complex (Homo sapiens, UniProt P05106+P06756+P21860); assay: Co-immunoprecipitation of integrin αvβ3 and ErbB3 in MCF-7 cells; type: cell-based; conditions: for Co-precipitation of integrin β3 with ErbB3 in MCF-7 cells: 5 nM, 5-30 min
T1 construct: endogenous in cells; host or cells: MCF-7
Protocol: FIG. 21. WT NRG1α (175-241) induced co-precipitation of integrin αvβ3 and ErbB3, while 3KE (175-241) is defective in this function. a) MCF-7 cells were serum-starved overnight and stimulated with WT or 3KE NRG1α (175-241) at indicated time points. In the present invention, 1 mg protein of cell lysate was used for immuno-precipitation of the αvβ3-ErbB3 complex with anti-ErbB3 antibody Immunoprecipitated materials were analyzed by Western blotting using antibodies specific to ErbB3, phosphorylated ErbB3, or integrin β3. The levels of ErbB3 phosphorylation were less with the 3KE mutant (175-241). Integrin αvβ3 was co-immuno-precipitated with the ErbB3 in 5-30 min upon stimulation with WT NRG1α (175-241), while the 3KE (175-241) mutant was defective in this function. b) Levels of β3 coprecipitation. In the present invention, the levels of β3 co-precipitation from digital images was quantified using ImageJ. The data are normalized with time 0 as 1 from two independent experiments.
Five minutes to 3 h after treatment with 5 nM WT or 3KE mutant NRG1α (175-241), MCF-7 cells were washed with ice-cold PBS and lysed with lysis buffer. The cell lysate was incubated with anti-ErbB3 overnight at 4° C. The immune complex was recovered by incubating with protein A Sepharose (GE Healthcare) for 1 hour at 4° C. and washed three times with wash buffer (20 mM HEPES (pH 7.4), 100 mM NaCl, 10% Glycerol, 0.5% NP-40, 1 mM MgCl2, 5 mM EDTA, 0.5% Triton X-100, 1 mM phenylmethylsulfonyl fluoride, 20 mM NaF, 1 mM Na3VO4, protease inhibitor cocktail (Sigma-Aldrich)). The immunoprecipitates were analyzed by western blotting with antibodies specific to integrin β3.

[5] = tested on: Met-1 mouse breast cancer; assay: Met-1 mouse breast cancer transplanted to fat pad of FVB syngeneic mice; type: in vivo; conditions: 200 ng/mouse/day intraperitoneally from day 5
Protocol: FIG. 23. Effect of the 3KE (175-241) mutation on in vivo tumorigenesis. Top: Growth curve. […] (P<0.0001 by two way ANOVA.) Bottom: Tumor size at day 18.
In the present invention, Met-1 mouse breast cancer fragment (2×2×2 mm) was transplanted to fat pad of FVB syngeneic mice (2 per animal, 5-6 mice per group) (day 0). At day 5, intraperitoneal injection of 200 ng/mouse/day wt NRG1, 3KE, heat-denatured 3KE or vehicle (PBS) everyday were started (FIG. 23). PBS contains 0.1 mg/ml mouse serum albumin as carrier. Tumor size was measured using caliper twice a week (FIG. 23). Tumor size was calculated using V=0.4×(a×b×b) where a is the longest diameter and b is a diameter perpendicular to a. Statistical analysis was performed using Prism software package.

T1 sequence (P21860 20-1342): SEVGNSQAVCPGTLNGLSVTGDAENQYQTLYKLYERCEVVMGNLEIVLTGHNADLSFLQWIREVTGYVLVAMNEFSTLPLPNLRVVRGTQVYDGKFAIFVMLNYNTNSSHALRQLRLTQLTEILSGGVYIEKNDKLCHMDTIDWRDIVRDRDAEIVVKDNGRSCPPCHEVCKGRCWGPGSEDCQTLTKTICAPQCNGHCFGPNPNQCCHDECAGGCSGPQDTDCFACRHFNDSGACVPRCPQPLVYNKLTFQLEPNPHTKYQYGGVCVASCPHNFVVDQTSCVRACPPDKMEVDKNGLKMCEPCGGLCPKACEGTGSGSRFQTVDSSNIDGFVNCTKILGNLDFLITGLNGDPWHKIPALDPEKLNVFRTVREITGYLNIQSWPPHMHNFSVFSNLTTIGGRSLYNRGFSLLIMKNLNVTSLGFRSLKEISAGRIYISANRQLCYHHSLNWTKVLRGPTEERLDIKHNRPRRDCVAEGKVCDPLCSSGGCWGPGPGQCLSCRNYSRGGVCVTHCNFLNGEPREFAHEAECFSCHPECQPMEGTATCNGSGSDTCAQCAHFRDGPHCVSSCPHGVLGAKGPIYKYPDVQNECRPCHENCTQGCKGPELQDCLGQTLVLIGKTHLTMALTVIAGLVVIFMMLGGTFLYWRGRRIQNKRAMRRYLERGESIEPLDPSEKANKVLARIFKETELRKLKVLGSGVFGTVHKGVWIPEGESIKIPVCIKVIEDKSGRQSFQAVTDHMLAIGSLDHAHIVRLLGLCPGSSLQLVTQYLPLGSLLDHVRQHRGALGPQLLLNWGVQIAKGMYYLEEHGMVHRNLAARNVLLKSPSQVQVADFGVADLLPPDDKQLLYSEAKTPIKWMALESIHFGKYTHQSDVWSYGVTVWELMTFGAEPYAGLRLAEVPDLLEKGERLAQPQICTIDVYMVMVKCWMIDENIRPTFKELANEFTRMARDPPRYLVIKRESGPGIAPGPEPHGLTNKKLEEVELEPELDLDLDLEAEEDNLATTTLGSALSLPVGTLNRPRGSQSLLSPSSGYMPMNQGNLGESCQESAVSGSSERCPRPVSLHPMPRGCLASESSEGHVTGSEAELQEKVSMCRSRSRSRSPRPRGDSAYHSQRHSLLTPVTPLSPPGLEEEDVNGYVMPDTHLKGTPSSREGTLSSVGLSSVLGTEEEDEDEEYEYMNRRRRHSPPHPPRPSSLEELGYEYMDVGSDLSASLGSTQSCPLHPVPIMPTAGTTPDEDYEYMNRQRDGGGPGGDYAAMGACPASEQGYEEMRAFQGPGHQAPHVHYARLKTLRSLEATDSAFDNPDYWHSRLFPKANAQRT
T1 sequence (P06756 31-1048): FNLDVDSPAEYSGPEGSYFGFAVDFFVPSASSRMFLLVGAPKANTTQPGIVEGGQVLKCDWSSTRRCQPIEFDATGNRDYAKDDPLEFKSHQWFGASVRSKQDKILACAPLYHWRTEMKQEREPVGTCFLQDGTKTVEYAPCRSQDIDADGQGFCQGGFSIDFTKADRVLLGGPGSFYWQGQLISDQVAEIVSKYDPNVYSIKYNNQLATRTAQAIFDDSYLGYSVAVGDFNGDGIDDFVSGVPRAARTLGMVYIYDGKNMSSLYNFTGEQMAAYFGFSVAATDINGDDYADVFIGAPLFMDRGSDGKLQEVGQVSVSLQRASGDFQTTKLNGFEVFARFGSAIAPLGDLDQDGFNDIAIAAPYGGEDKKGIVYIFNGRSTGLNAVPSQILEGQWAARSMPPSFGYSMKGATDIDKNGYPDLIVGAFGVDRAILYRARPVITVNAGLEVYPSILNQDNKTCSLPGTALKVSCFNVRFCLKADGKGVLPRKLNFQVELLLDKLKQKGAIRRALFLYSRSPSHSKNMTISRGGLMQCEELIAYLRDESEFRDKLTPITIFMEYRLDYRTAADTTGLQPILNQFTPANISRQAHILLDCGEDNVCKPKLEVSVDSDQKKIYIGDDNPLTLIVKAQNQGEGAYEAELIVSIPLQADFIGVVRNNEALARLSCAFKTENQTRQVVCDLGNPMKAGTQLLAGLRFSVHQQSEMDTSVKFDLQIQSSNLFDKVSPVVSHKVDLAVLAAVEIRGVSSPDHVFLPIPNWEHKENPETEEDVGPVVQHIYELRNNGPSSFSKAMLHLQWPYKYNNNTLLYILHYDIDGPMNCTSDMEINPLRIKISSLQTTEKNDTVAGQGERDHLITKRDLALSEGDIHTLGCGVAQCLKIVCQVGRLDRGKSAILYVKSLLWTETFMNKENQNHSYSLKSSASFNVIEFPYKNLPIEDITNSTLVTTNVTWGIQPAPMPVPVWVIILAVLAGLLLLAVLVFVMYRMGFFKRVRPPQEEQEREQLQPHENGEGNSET
T1 sequence (P05106 27-788): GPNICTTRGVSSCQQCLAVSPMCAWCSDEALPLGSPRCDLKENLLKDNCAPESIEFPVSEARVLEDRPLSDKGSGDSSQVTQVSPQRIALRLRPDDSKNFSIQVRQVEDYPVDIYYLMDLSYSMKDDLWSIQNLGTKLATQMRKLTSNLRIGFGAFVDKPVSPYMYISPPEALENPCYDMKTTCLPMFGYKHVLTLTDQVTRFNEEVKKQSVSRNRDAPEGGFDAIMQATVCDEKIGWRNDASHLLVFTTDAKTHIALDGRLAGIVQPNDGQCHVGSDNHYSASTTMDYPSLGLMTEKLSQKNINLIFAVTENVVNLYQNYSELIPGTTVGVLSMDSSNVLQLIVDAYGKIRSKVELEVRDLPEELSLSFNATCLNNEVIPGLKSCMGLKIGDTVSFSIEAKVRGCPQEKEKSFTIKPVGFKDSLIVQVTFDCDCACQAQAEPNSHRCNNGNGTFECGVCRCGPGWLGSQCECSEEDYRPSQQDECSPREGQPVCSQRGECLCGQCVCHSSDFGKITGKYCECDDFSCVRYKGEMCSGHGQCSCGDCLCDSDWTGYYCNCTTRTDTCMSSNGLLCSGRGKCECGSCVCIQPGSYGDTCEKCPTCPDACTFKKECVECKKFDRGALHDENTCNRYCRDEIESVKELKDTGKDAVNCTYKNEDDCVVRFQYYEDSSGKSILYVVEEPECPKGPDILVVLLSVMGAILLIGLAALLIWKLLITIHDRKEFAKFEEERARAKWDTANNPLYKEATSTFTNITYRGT

For “3KE (175-222): NRG1 (175-222) with Lys181/Lys185/Lys187 mutated to Glu; GTSHLVECAEEEETFCVNGGECFMVKDLSNPSRYLCKCQPGFTGARCT (SEQ ID NO:11) (integrin-binding site within human neuregulin, 3KE mutant, short version)”, the “Tumor growth of Met-1 in nude mice” value [1] was “markedly suppressed tumor growth”, the “ERK1/2 activation in HaCAT cells” value [2] was “suppressed levels of ERK1/2 activation” and the “Outgrowth of MIN-O in FVB mice” value [3] was “effectively suppressed the outgrowth of MIN-O tumors”.

B1: WT NRG1α (175-241): wild type human neuregulin 1 fragment, residues 175-241 of SEQ ID NO:4 (SEQ ID NO:5), entire EGF-like motif and α domain (protein)
chain: GTSHLVKCAEKEKTFCVNGGECFMVKDLSNPSRYLCKCQPGFTGARCTENVPMKVQNQEKAEELYQK
modifications: integrin-binding site within human neuregulin, residues 175-241of human neuregulin 1alpha, long version
B1 was tested, and the “Co-precipitation of integrin β3 with ErbB3 in MCF-7 cells” value [4] was “increased the amount of integrin β3 protein that co-precipitates with ErbB3”.

B2: 3KE (175-241): NRG1α (175-241) with Lys181/Lys185/Lys187 mutated to Glu, SEQ ID NO:6 (3KE, long version) (protein)
chain: GTSHLVECAEEEETFCVNGGECFMVKDLSNPSRYLCKCQPGFTGARCTENVPMKVQNQEKAEELYQK
modifications: integrin-binding site within human neuregulin, residues 175-241of human neuregulin 1alpha, long version, 3KE mutant
With B2 the “Co-precipitation of integrin β3 with ErbB3 in MCF-7 cells” value [4] was “did not”, the “Levels of ErbB3 phosphorylation in anti-ErbB3 immunoprecipitates of MCF-7 cells” value ([4]; compared with WT NRG1α (175-241)) was “less” and the “Tumor growth curve of Met-1 in FVB mice” value ([5]; P<0.0001 by two way ANOVA) was “suppressed tumor growth”. For the same molecule, the “Tumor size at day 18, Met-1 in FVB mice” value ([5]; t-test) was “suppressed tumor growth”.

— US20110212108A1, “NEUREGULIN/ERBB SIGNALING AND INTEGRIN” (THE REGENTS OF THE UNIVERSITY OF CALIFORNIA, priority 2008, published 2011)
